Reference: article PMC4835091, “Characterization of the FtsZ C-Terminal Variable (CTV) Region in Z-Ring Assembly and Interaction with the Z-Ring Stabilizer ZapD in E. coli Cytokinesis” (PLoS ONE, 2016)

Experiments:
Test in all cases: co-sedimentation; FtsZ or CTV mutant 5 μM with ZapD 1 or 5 μM in 50 mM K-MOPS pH 6.5, 50 mM KCl, 2.5 mM MgCl2, 3 μM BSA, 1 mM GTP, room temperature; TLA100.2, 80,000 rpm, 10 min; ZapD in the pellet by SDS-PAGE
Settings in all cases: both partners purified
FtsZ(QQQQ) (purified) = target: T1, FtsZ(QQQQ) (purified) (E. coli, UniProt P0A9A6 1-383, CTV KQAD replaced by QQQQ)
T1 construct: FtsZ of E. coli with the native CTV KQAD replaced by QQQQ (net-neutral); pLT1, pET-21b(+); also called net-neutral CTV mutant; source: E. coli C41(DE3), purified (25% saturated ammonium sulfate cut)
T1 sequence (looked up): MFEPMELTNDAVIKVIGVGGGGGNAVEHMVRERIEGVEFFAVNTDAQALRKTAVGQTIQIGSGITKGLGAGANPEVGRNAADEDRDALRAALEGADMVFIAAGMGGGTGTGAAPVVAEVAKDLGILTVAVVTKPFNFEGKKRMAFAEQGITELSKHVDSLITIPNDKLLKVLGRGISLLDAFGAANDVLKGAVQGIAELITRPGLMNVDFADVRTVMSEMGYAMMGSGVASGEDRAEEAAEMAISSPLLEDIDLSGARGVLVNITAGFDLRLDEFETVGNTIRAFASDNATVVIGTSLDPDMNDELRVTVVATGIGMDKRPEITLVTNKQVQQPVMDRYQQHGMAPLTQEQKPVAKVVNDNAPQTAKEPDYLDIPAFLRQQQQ

FtsZ(KQAK) (purified) = target: T2, FtsZ(KQAK) (purified) (E. coli, UniProt P0A9A6 1-383, CTV KQAD replaced by KQAK)
T2 construct: FtsZ of E. coli with the native CTV KQAD replaced by KQAK (net-positive); pKHH8, pET-21b(+); also called net-positive CTV mutant; source: E. coli C41(DE3), purified (25% saturated ammonium sulfate cut)
T2 sequence (looked up): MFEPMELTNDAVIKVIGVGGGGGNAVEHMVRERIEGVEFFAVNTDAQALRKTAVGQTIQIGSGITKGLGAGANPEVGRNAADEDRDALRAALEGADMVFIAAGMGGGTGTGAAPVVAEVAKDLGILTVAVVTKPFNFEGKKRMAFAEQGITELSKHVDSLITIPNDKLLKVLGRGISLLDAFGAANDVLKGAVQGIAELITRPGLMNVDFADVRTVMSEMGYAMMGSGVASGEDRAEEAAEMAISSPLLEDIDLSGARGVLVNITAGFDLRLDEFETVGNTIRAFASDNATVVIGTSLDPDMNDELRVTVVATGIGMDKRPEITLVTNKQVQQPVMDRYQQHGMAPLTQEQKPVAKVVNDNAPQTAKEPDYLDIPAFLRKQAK

FtsZ(RQAR) (purified) = target: T3, FtsZ(RQAR) (purified) (E. coli, UniProt P0A9A6 1-383, CTV KQAD replaced by RQAR)
T3 construct: FtsZ of E. coli with the native CTV KQAD replaced by RQAR (net-positive); pAM3, pET-21b(+); also called net-positive CTV mutant; source: E. coli C41(DE3), purified (25% saturated ammonium sulfate cut)
T3 sequence (looked up): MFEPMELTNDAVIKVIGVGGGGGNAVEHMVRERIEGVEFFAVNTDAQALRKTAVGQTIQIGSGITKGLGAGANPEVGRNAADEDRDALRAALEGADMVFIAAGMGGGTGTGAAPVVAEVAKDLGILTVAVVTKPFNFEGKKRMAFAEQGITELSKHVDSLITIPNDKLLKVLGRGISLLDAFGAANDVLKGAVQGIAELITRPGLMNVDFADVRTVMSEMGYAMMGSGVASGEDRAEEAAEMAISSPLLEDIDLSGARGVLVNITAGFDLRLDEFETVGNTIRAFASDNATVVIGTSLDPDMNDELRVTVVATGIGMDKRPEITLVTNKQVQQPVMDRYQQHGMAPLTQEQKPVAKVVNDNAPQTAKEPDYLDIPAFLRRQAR

FtsZ(DQAK) (purified) = target: T4, FtsZ(DQAK) (purified) (E. coli, UniProt P0A9A6 1-383, CTV KQAD replaced by DQAK)
T4 construct: FtsZ of E. coli with the native CTV KQAD replaced by DQAK (net-neutral); pKHH9, pET-21b(+); also called net-neutral CTV mutant; source: E. coli C41(DE3), purified (25% saturated ammonium sulfate cut)
T4 sequence (looked up): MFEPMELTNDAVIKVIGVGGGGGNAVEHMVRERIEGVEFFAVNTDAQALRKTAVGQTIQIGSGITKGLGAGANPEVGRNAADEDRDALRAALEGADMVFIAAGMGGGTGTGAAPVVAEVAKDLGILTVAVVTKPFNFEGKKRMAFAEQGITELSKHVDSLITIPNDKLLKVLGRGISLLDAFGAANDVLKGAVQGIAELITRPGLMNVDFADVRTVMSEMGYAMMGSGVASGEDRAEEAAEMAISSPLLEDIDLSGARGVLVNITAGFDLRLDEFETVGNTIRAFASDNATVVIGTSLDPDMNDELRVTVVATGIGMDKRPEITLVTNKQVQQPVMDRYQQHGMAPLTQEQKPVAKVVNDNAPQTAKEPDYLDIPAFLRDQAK

Measured: binding result

B1: ZapD (purified) (natural protein, E. coli, UniProt P36680 1-247, looked up)
chain: MQTQVLFEHPLNEKMRTWLRIEFLIQQLTVNLPIVDHAGALHFFRNVSELLDVFERGEVRTELLKELDRQQRKLQTWIGVPGVDQSRIEALIQQLKAAGSVLISAPRIGQFLREDRLIALVRQRLSIPGGCCSFDLPTLHIWLHLPQAQRDSQVETWIASLNPLTQALTMVLDLIRQSAPFRKQTSLNGFYQDNGGDADLLRLNLSLDSQLYPQISGHKSRFAIRFMPLDTENGQVPERLDFELACC
notes: ZapD, Z-ring stabilizer of E. coli; also called purified ZapD; pET28b-His10-Smt3-ZapD
binds: FtsZ(QQQQ) (purified) | FtsZ(KQAK) (purified) | FtsZ(RQAR) (purified) | FtsZ(DQAK) (purified)
